T1: SNAP25 Peptide 2 (PEP2) (Homo sapiens, UniProt P60880 SEQ:1-37)
T1 chain: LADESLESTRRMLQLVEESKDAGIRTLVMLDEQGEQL

B1: PEP 2.14 (ssDNA)
DNA: TTTTTAAGCCCACGGGTCTGTGGTCACCGAACGACGTGGCAGTGGGCCCATG
modifications: W indole, X amine, Y phenol modified dU [17,19,24]
B2: PEP 2.09 (ssDNA)
DNA: TTTTTAACACGACATAGGTTCGCTGGTCACAGAATGTTGTGGTGGGCCCATG
modifications: W indole, X amine, Y phenol modified dU [15,19,20,24,27,35,38,40]
B3: PEP 2.03 (ssDNA)
DNA: TTTTTAACACGACGGTGCTGTGCTGGTCACAGCACGCGCGCGTCGTGCCATG
modifications: W indole, X amine, Y phenol modified dU [16,19,24,27,43,46]
B4: PEP 2.11 (ssDNA)
DNA: TTTTTAAGCCCACTTGGCTGTGCACATCACAGAACAAGCAGGTGGGCCCATG
modifications: W indole, X amine, Y phenol modified dU [14,15,19,27]
B5: PEP 2.02 (ssDNA)
DNA: TTTTTAAGCCCACATACGTTCGATGGTCACAGATTGGGCAAGTCGTGCCATG
modifications: W indole, X amine, Y phenol modified dU [15,19,20,24,27,34,35,43,46]
B6: PEP 2.05 (ssDNA)
DNA: TTTTTAAGCCCACCCTACTGTGGTCACCACAGTGCAAGCCCGTCGTGCCATG
modifications: W indole, X amine, Y phenol modified dU [16,19,24,43,46]
B7: PEP 2.12 (ssDNA)
DNA: TTTTTAACACGACTAGACTGTGTATCCCACAGGGCAATGTGGTCGTGCCATG
modifications: W indole, X amine, Y phenol modified dU [14,19,23,25,38,40,43,46]
B8: PEP 2.08 (ssDNA)
DNA: TTTTTAAGCCCACGTTTGTTCGGTGGTCACAGCACGCCACGGTCGTGCCATG
modifications: W indole, X amine, Y phenol modified dU [15,16,17,19,20,24,27,43,46]
B9: PEP 2.16 (ssDNA)
DNA: TTTTTAAGCCCACATAGGTTCGGTGGTCACAGTGTGGTGCGGTGGGCCCATG
modifications: W indole, X amine, Y phenol modified dU [15,19,20,24,27,35,38]
B10: PEP 2.04 (ssDNA)
DNA: TTTTTAACACGACATGGCTGTGGTCATCACAGCGCACCATTGTCGTGCCATG
modifications: W indole, X amine, Y phenol modified dU [15,19,24,27,40,43,46]
B11: PEP 2.10 (ssDNA)
DNA: TTTTTAAGCCCACTGGCCTGTGGTCAGCGAACTGTGCGCTGGTGGGCCCATG
modifications: W indole, X amine, Y phenol modified dU [14,19,24,35,40]
B12: PEP 2.07 (ssDNA)
DNA: TTTTTAACACGACGTCGCTGTGGTCAACGAACAGATACAACGTCGTGCCATG
modifications: W indole, X amine, Y phenol modified dU [15,19,24,36,43,46]
B13: PEP 2.13 (ssDNA)
DNA: TTTTTAAGCCCACATGCCTGTGGTCATCGAACATTGGGCCGGTCGTGCCATG
modifications: W indole, X amine, Y phenol modified dU [15,19,24,27,34,35,43,46]
B14: PEP 2.01 (ssDNA)
DNA: TTTTTAACACGACGTTACTGTGGTCACCACAGGATGAGCCTGTCGTGCCATG
modifications: W indole, X amine, Y phenol modified dU [15,16,19,24,35,43,46]
B15: PEP 2.15 (ssDNA)
DNA: B14 DNA with C40T
modifications: W indole, X amine, Y phenol modified dU [15,16,19,24,35,40,43,46]
B16: PEP 2.17 (ssDNA)
DNA: B14 DNA with C39G
modifications: W indole, X amine, Y phenol modified dU [15,16,19,24,35,43,46]
B17: PEP 2.18 (ssDNA)
DNA: B14 DNA with C27T
modifications: W indole, X amine, Y phenol modified dU [15Y,16W,19Y,24W,27X,35Y,43X,46Y]
B18: PEP 2.06 (ssDNA)
DNA: TTTTTAACACGACCGGCCTGTGGTCAGCACAGACTGTTGTGGTCGTGCCATG
modifications: W indole, X amine, Y phenol modified dU [19,24,35,38,40,43,46]
B19: SNAP.06 (ssDNA)
DNA: TTTTTAAGCCCACTTCGCTGTGAGCAACGAACATCGAGCAGGTCGTGCCATG
modifications: W indole, X amine, Y phenol modified dU [14,15,19,34,43,46]
B20: SNAP.04 (ssDNA)
DNA: TTTTTAAGCCCACCCACCTGTGGACATCGAACCTCACTGCAGTGGGCCCATG
modifications: W indole, X amine, Y phenol modified dU [19,27,34,38]
B21: SNAP.02 (ssDNA)
DNA: TTTTTAAGCCCACACTGCTGTGAAGGACACAGCCCGACATCGTCGTGCCATG
modifications: W indole, X amine, Y phenol modified dU [16,19,40,43,46]
B22: SNAP.03 (ssDNA)
DNA: TTTTTAAGCCCACGGGTGTTCGACAGACACAGCAATACATCGTGGGCCCATG
modifications: W indole, X amine, Y phenol modified dU [17,19,20,36,40]
B23: SNAP.05 (ssDNA)
DNA: TTTTTAAGCCCACCCCGGTTCGCCAGACGAACCCCAACAGTGTGGGCCCATG
modifications: W indole, X amine, Y phenol modified dU [19,20]
B24: PEP 4.11 (ssDNA)
DNA: TTTTTAAGCCCACCCGAGTTCGTCCAGCGAACCACGCGCGTGTCGTGCCATG
B25: PEP 4.07 (ssDNA)
DNA: TTTTTAAGCCCACTCGTGTTCGCACACCGAACCACAAGCTAGTGGGCCCATG
B26: PEP 4.09 (ssDNA)
DNA: TTTTTAACACGACATATGTTCGACGGACACAGTGTGTGGCGGTCGTGCCATG
B27: PEP 4.20 (ssDNA)
DNA: TTTTTAAGCCCACACGTGTTCGGATCGCACAGTTATTGGCAGTCGTGCCATG
B28: PEP 4.02 (ssDNA)
DNA: TTTTTAAGCCCACTACTGTTCGAAGGGCACAGTCCAGGCCGGTGGGCCCATG
B29: PEP 4.10 (ssDNA)
DNA: TTTTTAAGCCCACAAGACTGTGCGTCGCACAGATTGGCATCGTCGTGCCATG
B30: PEP 4.13 (ssDNA)
DNA: TTTTTAAGCCCACGGCCGTTCGGCCACCACAGTGTGGCAGCGTCGTGCCATG
B31: PEP 4.14 (ssDNA)
DNA: TTTTTAAGCCCACAAAAGTTCGGGCAGCACAGGTCGCTGAGGTCGTGCCATG
B32: PEP 4.16 (ssDNA)
DNA: TTTTTAACACGACAGACCTGTGATGGTCGAACTCCATGCATGTGGGCCCATG
B33: PEP 4.17 (ssDNA)
DNA: TTTTTAAGCCCACGCCAGTTCGGTCAACGAACTACGGTGATGTGGGCCCATG
B34: PEP 4.08 (ssDNA)
DNA: TTTTTAACACGACCATTCTGTGCCAGCCGAACTCCGTGCTGGTGGGCCCATG
B35: PEP 4.12 (ssDNA)
DNA: TTTTTAACACGACAGCCCTGTGCAGGCCGAACGGCGTTGATGTCGTGCCATG
B36: PEP 4.06 (ssDNA)
DNA: TTTTTAAGCCCACGAGAGTTCGATAGTCACAGATTGGCACCGTCGTGCCATG
B37: PEP 4.21 (ssDNA)
DNA: TTTTTAAGCCCACGGGGCTGTGAGCAACGAACATTGGCACAGTCGTGCCATG
B38: PEP 4.01 (ssDNA)
DNA: TTTTTAAGCCCACAAGCGTTCGGCTCTCACAGATCGTTGACGTGGGCCCATG
B39: PEP 4.19 (ssDNA)
DNA: B38 DNA with C30T
B40: PEP 4.05 (ssDNA)
DNA: TTTTTAAGCCCACATAAGTTCGCAAGTCACAGCGATGTGATGTCGTGCCATG
B41: PEP 4.18 (ssDNA)
DNA: TTTTTAACACGACTATTCTGTGAGTCTCGAACTGCGACAACGTGGGCCCATG
B42: PEP 4.04 (ssDNA)
DNA: TTTTTAAGCCCACGATCCTGTGCTTCGCACAGCTCGAGCTAGTGGGCCCATG
B43: PEP 4.22 (ssDNA)
DNA: TTTTTAAGCCCACGGTGCTGTGGAAGCCACAGTACAATGGAGTGGGCCCATG
B44: PEP 4.15 (ssDNA)
DNA: TTTTTAACACGACGTGACTGTGAGAGGCACAGTTTGGGGGCGTGGGCCCATG
B45: PEP 4.03 (ssDNA)
DNA: TTTTTAACACGACAGGGGTTCGTAGGACACAGGTTGATGTTGTGGGCCCATG

Residue numbers refer to the chain shown, from its start.

Sequence of SNAP25 Peptide 4 (PEP4, BoNT/A cleavage site region) (P60880 174-197): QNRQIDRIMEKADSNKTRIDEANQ
Sequence of SNAP25 full length (FLAG and MYC tagged) (P60880 whole entry): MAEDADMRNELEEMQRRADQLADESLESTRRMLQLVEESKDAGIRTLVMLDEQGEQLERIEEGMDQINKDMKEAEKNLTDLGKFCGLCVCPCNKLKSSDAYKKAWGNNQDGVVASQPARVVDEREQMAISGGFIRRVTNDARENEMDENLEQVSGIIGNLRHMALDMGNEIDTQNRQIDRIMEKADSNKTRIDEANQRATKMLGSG

The first data set addresses T1, SNAP25 Peptide 2 (PEP2). Put plainly: ELONA.
Details: not given
From the text: (§1) The data in Table 2 was collected by running direct ELISA assays on the 96 X-aptamers, elucidating their ability to bind SNAP25, SNAP25 fragments (PEP1, PEP2, PEP3, and PEP4), and a negative control. The X-aptamers were biotinylated and immobilized onto streptavidin-coated plates and were utilized as detection molecules. Higher numbers represent strong binding. The negative control peptide is a random peptide to measure the amount of binding that occurs to a random amino acid sequence.
Molecule B1 gave a binding signal of 36 ELISA signal.

In turn, B2 gave a binding signal of 46 ELISA signal.

The molecule B3 gave a binding signal of 221 ELISA signal.

In the case of B4, the binding signal is 40 ELISA signal.

B5 registered a binding signal of 394 ELISA signal.

B6 registered a binding signal of 159 ELISA signal.

The molecule B7 showed a binding signal of 37 ELISA signal.

For the molecule B8, the binding signal came out at 65 ELISA signal.

In turn, B9 gave a binding signal of 31 ELISA signal.

In turn, B10 registered a binding signal of 190 ELISA signal.

Regarding B11, the binding signal was found to be 43 ELISA signal.

Regarding B12, the binding signal worked out at 65 ELISA signal.

As for B13, the binding signal was found to be 36 ELISA signal.

B14 had a binding signal of 592 ELISA signal.

As for B15, the binding signal turned out to be 36 ELISA signal.

For B16, the binding signal is 30 ELISA signal.

B17: the binding signal is 26 ELISA signal.

On to B18, for which the binding signal was 102 ELISA signal.

The next data set has as its target SNAP25 full length (FLAG and MYC tagged) (Homo sapiens, UniProt P60880 SEQ:12-217). Put plainly: ELONA. The conditions noted are these: tags: FLAG and MYC.
Text: as §1
The molecule B19 had a binding signal of 45 ELISA signal.

Take B20: the binding signal is 83 ELISA signal.

B21 displayed a binding signal of 95 ELISA signal.

B22: the binding signal worked out at 92 ELISA signal.

B23 returned a binding signal of 75 ELISA signal.

A further data set concerns the target SNAP25 Peptide 4 (PEP4, BoNT/A cleavage site region) (Homo sapiens, UniProt P60880 SEQ:1-24). Nature of the data set: ELONA. The conditions noted are these: label: biotin.
Molecule B24 had a binding signal of 67 ELISA signal.

The molecule B25 displayed a binding signal of 105 ELISA signal.

The molecule B26 yielded a binding signal of 85 ELISA signal.

Take B27: the binding signal is 18 ELISA signal.

For B28, the binding signal was 208 ELISA signal.

On to B29, for which the binding signal came out at 76 ELISA signal.

In turn, B30 returned a binding signal of 57 ELISA signal.

Molecule B31 returned a binding signal of 37 ELISA signal.

In turn, B32 registered a binding signal of 35 ELISA signal.

As to B33, the binding signal was 24 ELISA signal.

B34 came in with a binding signal of 94 ELISA signal.

B35 showed a binding signal of 61 ELISA signal.

Consider B36, for which the binding signal stood at 131 ELISA signal.

For the molecule B37, the binding signal was 18 ELISA signal.

For the molecule B38, the binding signal worked out at 257 ELISA signal.

B39 displayed a binding signal of 18 ELISA signal.

For B40, the binding signal worked out at 170 ELISA signal.

In the case of B41, the binding signal came to 18 ELISA signal.

The molecule B42 showed a binding signal of 186 ELISA signal.

In the case of B43, the binding signal was 17 ELISA signal.

With B44, the binding signal stood at 37 ELISA signal.

B45 displayed a binding signal of 202 ELISA signal.
